Measurements: paper PMC314469, “Protein Interaction Networks by Proteome Peptide Scanning” (PLoS Biology, 2004)

T1: Abp1 SH3 (ABP1_YEAST), P15891
T1 chain: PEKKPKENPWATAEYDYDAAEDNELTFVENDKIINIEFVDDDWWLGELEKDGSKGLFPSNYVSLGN


Biological target: T1, Abp1 SH3 (ABP1_YEAST), P15891
Assay: SPOT array

| Binder | normalised SPOT signal, Boehringer light units (BLU); mean over the file's lines of this peptide |
| --- | --- |
| IDIPVRQPYSKKP [YDR422C 269-281] | 639 |
| IDLVKHSPGAIKP [YHL030W 1303-1315] | 84.8 |
| IDRIPPPTGRPDKP [YLR289W 221-234] | 118 |
| IEFKDVSFSYPTRP [YPL270W 493-506] | 89 |
| IEKTKDILSIPPKP [YOR219C 489-502] | 63.2 |
| IERQRLSMVTPSKP [YCL063W 140-153] | 2630 |
| IESLTTIMRIPSKP [YBR250W 264-277] | 204 |
| IFLNRKKPALFRP [YNL230C 281-293] | 2850 |
| IFLNYEWPQWLRP [YOR336W 1160-1172] | 163 |
| IFPPIDDPLPFKP [YDR284C 246-258] | 62 |
| IFYSLIYPYLIKP [YIL067C 132-144] | 90.9 |
| IGLFGKDLSKPGRP [YBR243C 53-66] | 150 |
| IGNDRASPTNKKP [YGR097W 338-350] | 420 |
| IGRNIVKVVYPDKP [YJL025W 348-361] | 105 |
| IGSFITINIVPWRP [YLR101C 109-122] | 21.1 |
| IHLTDKGFKMPKKP [YOR243C 79-92] | 508 |
| IHTSPHQPSDVKP [YDR227W 60-72] | 121 |
| IHYKKNIEISPLKP [YML053C 112-125] | 82.1 |
| IIDSVKVPDSYKP [YDR058C 11-23] | 67.7 |
| IIEKGPVPENLKP [YLR069C 260-272] | 100 |

| Binder | normalised SPOT signal, Boehringer light units (BLU); mean over the file's lines of this peptide |
| --- | --- |
| IIHTDDLPEGIRP [YLR090W 426-438] | 125 |
| IILENFIVEVPDKP [YKL005C 358-371] | 57.8 |
| IIPIAKTPLNARP [YJR001W 478-490] | 74.7 |
| IITDTTRPSNNRP [YOR368W 277-289] | 126 |
| IKEEERLQSQPPRP [YGR268C 17-30] | 137 |
| IKKSVSSPKVSKP [YLR453C 47-59] | 114 |
| IKMASFLPVPEKP [YNL206C 123-135] | 370 |
| IKPDAVVPERVKP [YPR171W 226-238] | 38.6 |
| IKPPKHIRNEPVKP [YHR037W 22-35] | 87.3 |
| ILAILQELSLPSRP [YGR002C 424-437] | 15.7 |
| ILDKTSPETAPHKP [YOR176W 118-131] | 86.1 |
| ILEEDLNPDAPPKP [YPL057C 39-52] | 76.3 |
| ILIGLLKDILPQRP [YNR011C 357-370] | 97.3 |
| ILKQDLIPSIGKP [YNR027W 300-312] | 73 |
| ILTFSTKKSKPIRP [YMR259C 332-345] | 1350 |
| ILVESSSPLSSKP [YGL248W 276-288] | 52.3 |
| ILVSLLIHSLPRKP [YGL104C 354-367] | 176 |
| ILYKSNDVELPGKP [YMR094W 38-51] | 0 |
| IMSPVGNPEGPEKP [YKL060C 311-324] | 153 |
| INAYSNIPPQQRP [YCR033W 972-984] | 84.6 |

| Binder | normalised SPOT signal, Boehringer light units (BLU); mean over the file's lines of this peptide |
| --- | --- |
| INLANEQPVLEKP [YDR227W 195-207] | 105 |
| INLAVNMPPGQRP [YEL055C 74-86] | 163 |
| INPLGITPLGPKP [YKR076W 353-365] | 9.5 |
| INQFGIVPLGPKP [YGR154C 339-351] | 133 |
| IPEYILDPNAQKP [YAL058W 299-311] | 50 |
| IPGLGYLENNPGRP [YOL146W 66-79] | 155 |
| IPILIKMSRSPPRP [YDR243C 233-246] | 2420 |
| IPLLKEKPNALKP [YOR001W 149-161] | 2180 |
| IPPPQTLPNGQKP [YGL222C 52-64] | 57.2 |
| IPSENNIFFIPQKP [YPL147W 673-686] | 79.8 |
| IPSGKVDPVTKKP [YJR024C 135-147] | 21 |
| IPTRENTPSAFKP [YDL231C 441-453] | 204 |
| IQESMKHPKHFRP [YKL146W 503-515] | 822 |
| IRGFKSKPGTAKP [YDR409W 265-277] | 434 |
| IRPDGRLPHQFRP [YDL111C 21-33] | 1260 |
| IRRYLRVPNELKP [YJL004C 4-16] | 105 |
| ISSQIAQPYEDRP [YDR280W 60-72] | 43.3 |
| ISGVYYSNWSPYKP [YDR371W 74-87] | 91.7 |
| ISKWTIMPHPNRP [YOL008W 136-148] | 1030 |
